Data reported in US20230220589A1.

Legend:
[1] = target: M44-modified F NTAA target peptides (M44-F-P2-peptide); experiment: encoding assay; P2 A;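 note: fraction of recording tags encoded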
[2] = target: M44-modified M NTAA target peptides; experiment: encoding assay; P2 A
[3] = target: M44-modified A NTAA target peptides (M44-A-P2-peptide); experiment: encoding assay; P2 I
[4] = target: M44-modified D NTAA target peptides; experiment: encoding assay; P2 I;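 note: fraction of recording tags encoded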
[5] = target: M44-modified E NTAA target peptides; experiment: encoding assay; P2 I;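 note: fraction of recording tags encoded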
[6] = target: M44-modified F NTAA target peptides (M44-F-P2-peptide); experiment: encoding assay; P2 I;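 note: fraction of recording tags encoded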
[7] = target: M44-modified G NTAA target peptides (M44-G-P2-peptide); experiment: encoding assay; P2 I;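 note: fraction of recording tags encoded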
[8] = target: M44-modified H NTAA target peptides; experiment: encoding assay; P2 I
[9] = target: M44-modified I NTAA target peptides (M44-I-P2-peptide); experiment: encoding assay; P2 I
[10] = target: M44-modified L NTAA target peptides (M44-L-P2-peptide); experiment: encoding assay; P2 I;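 note: fraction of recording tags encoded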
[11] = target: M44-modified M NTAA target peptides; experiment: encoding assay; P2 I
[12] = target: M44-modified N NTAA target peptides; experiment: encoding assay; P2 I
[13] = target: M44-modified Q NTAA target peptides; experiment: encoding assay; P2 I
[14] = target: M44-modified S NTAA target peptides; experiment: encoding assay; P2 I
[15] = target: M44-modified T NTAA target peptides; experiment: encoding assay; P2 I
[16] = target: M44-modified V NTAA target peptides; experiment: encoding assay; P2 I;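 note: fraction of recording tags encoded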
[17] = target: M44-modified W NTAA target peptides; experiment: encoding assay; P2 I;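 note: fraction of recording tags encoded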
[18] = target: M44-modified Y NTAA target peptides (M44-Y-P2-peptide); experiment: encoding assay; P2 I;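 note: fraction of recording tags encoded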
[19] = target: M44-modified A NTAA target peptides (M44-A-P2-peptide); experiment: encoding assay; P2 P
[20] = target: M44-modified D NTAA target peptides; experiment: encoding assay; P2 P;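 note: fraction of recording tags encoded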
[21] = target: M44-modified E NTAA target peptides; experiment: encoding assay; P2 P;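 note: fraction of recording tags encoded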
[22] = target: M44-modified F NTAA target peptides (M44-F-P2-peptide); experiment: encoding assay; P2 P;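 note: fraction of recording tags encoded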
[23] = target: M44-modified H NTAA target peptides; experiment: encoding assay; P2 P
[24] = target: M44-modified I NTAA target peptides (M44-I-P2-peptide); experiment: encoding assay; P2 P
[25] = target: M44-modified L NTAA target peptides (M44-L-P2-peptide); experiment: encoding assay; P2 P;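 note: fraction of recording tags encoded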
[26] = target: M44-modified M NTAA target peptides; experiment: encoding assay; P2 P
[27] = target: M44-modified N NTAA target peptides; experiment: encoding assay; P2 P
[28] = target: M44-modified Q NTAA target peptides; experiment: encoding assay; P2 P
[29] = target: M44-modified S NTAA target peptides; experiment: encoding assay; P2 P
[30] = target: M44-modified Y NTAA target peptides (M44-Y-P2-peptide); experiment: encoding assay; P2 P;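 note: fraction of recording tags encoded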
[31] = target: M44-modified A NTAA target peptides (M44-A-P2-peptide); experiment: encoding assay; P2 Q
[32] = target: M44-modified D NTAA target peptides; experiment: encoding assay; P2 Q;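 note: fraction of recording tags encoded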
[33] = target: M44-modified E NTAA target peptides; experiment: encoding assay; P2 Q;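 note: fraction of recording tags encoded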
[34] = target: M44-modified F NTAA target peptides (M44-F-P2-peptide); experiment: encoding assay; P2 Q;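 note: fraction of recording tags encoded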
[35] = target: M44-modified H NTAA target peptides; experiment: encoding assay; P2 Q
[36] = target: M44-modified I NTAA target peptides (M44-I-P2-peptide); experiment: encoding assay; P2 Q
[37] = target: M44-modified L NTAA target peptides (M44-L-P2-peptide); experiment: encoding assay; P2 Q;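 note: fraction of recording tags encoded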
[38] = target: M44-modified M NTAA target peptides; experiment: encoding assay; P2 Q
[39] = target: M44-modified N NTAA target peptides; experiment: encoding assay; P2 Q
[40] = target: M44-modified Q NTAA target peptides; experiment: encoding assay; P2 Q
[41] = target: M44-modified S NTAA target peptides; experiment: encoding assay; P2 Q
[42] = target: M44-modified V NTAA target peptides; experiment: encoding assay; P2 Q;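 note: fraction of recording tags encoded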
[43] = target: M44-modified A NTAA target peptides (M44-A-P2-peptide); experiment: encoding assay; P2 Y
[44] = target: M44-modified D NTAA target peptides; experiment: encoding assay; P2 Y;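 note: fraction of recording tags encoded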
[45] = target: M44-modified G NTAA target peptides (M44-G-P2-peptide); experiment: encoding assay; P2 Y;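 note: fraction of recording tags encoded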
[46] = target: M44-modified H NTAA target peptides; experiment: encoding assay; P2 Y
[47] = target: M44-modified I NTAA target peptides (M44-I-P2-peptide); experiment: encoding assay; P2 Y
[48] = target: M44-modified L NTAA target peptides (M44-L-P2-peptide); experiment: encoding assay; P2 Y;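 note: fraction of recording tags encoded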
[49] = target: M44-modified M NTAA target peptides; experiment: encoding assay; P2 Y
[50] = target: M44-modified P NTAA target peptides; experiment: encoding assay; P2 Y;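 note: fraction of recording tags encoded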
[51] = target: M44-modified T NTAA target peptides; experiment: encoding assay; P2 Y

B1: engineered M44-A binder (SEQ ID NO: 42) (designed binder, not shown: small tags and cut ends; large carriers)
chain: QVSVQPNFQQDKFLGRWFVAGLASNSSWDREKVAALSGAKMVVAPATDGGLNVTRTMLRKNQCETYTGLLQPAGSLGSYSWRSPHPGSTGSESVVETDYDQYALVYGQGSKGPGEDLRAAALWSRTQTPRAELKEKFTAFSKAQGFTEDTIVFLPQTDKCMTEQ
[1]
  encoding yield: 0.06
[2]
  encoding yield: 0.03
[3]
  encoding yield: 0.2
[4]
  encoding yield: 0.03
[5]
  encoding yield: 0.03
[6]
  encoding yield: 0.02
[7]
  encoding yield: 0.1
[8]
  encoding yield: 0.04
[9]
  encoding yield: 0.08
[10]
  encoding yield: 0.03
[11]
  encoding yield: 0.01
[12]
  encoding yield: 0.03
[13]
  encoding yield: 0.03
[14]
  encoding yield: 0.1
[15]
  encoding yield: 0.12
[16]
  encoding yield: 0.11
[17]
  encoding yield: 0.02
[18]
  encoding yield: 0.1
[19]
  encoding yield: 0.03
[20]
  encoding yield: 0.04
[21]
  encoding yield: 0.03
[22]
  encoding yield: 0.04
[23]
  encoding yield: 0.04
[24]
  encoding yield: 0.03
[25]
  encoding yield: 0.04
[26]
  encoding yield: 0.02
[27]
  encoding yield: 0.02
[28]
  encoding yield: 0.03
[29]
  encoding yield: 0.05
[30]
  encoding yield: 0.02
[31]
  encoding yield: 0.22
[32]
  encoding yield: 0.03
[33]
  encoding yield: 0.04
[34]
  encoding yield: 0.03
[35]
  encoding yield: 0.04
[36]
  encoding yield: 0.02
[37]
  encoding yield: 0.04
[38]
  encoding yield: 0.01
[39]
  encoding yield: 0.05
[40]
  encoding yield: 0.02
[41]
  encoding yield: 0.05
[42]
  encoding yield: 0.06
[43]
  encoding yield: 0.29
[44]
  encoding yield: 0.04
[45]
  encoding yield: 0.08
[46]
  encoding yield: 0.07
[47]
  encoding yield: 0.11
[48]
  encoding yield: 0.1
[49]
  encoding yield: 0.06
[50]
  encoding yield: 0.03
[51]
  encoding yield: 0.1

B2: engineered M44-L binder (SEQ ID NO: 21) (designed binder, not shown: small tags and cut ends; large carriers)
chain: QVSVQPNFQQDKFLGRWFYAGHASNSSWYREKVAALSMAKLVVAPATDGGLNATETFLRKNQCETITSLLQPAGSLGSYSSRSPHGGSTWSTSVVETDYDQYALLYLQGSKGPGEDFRGAILASRTQTPRAELKEKFTAFSKAQGFTEDTIVFLPQTDKCMTEQ
[1]
  encoding yield: 0.07
[2]
  encoding yield: 0.06
[3]
  encoding yield: 0.01
[4]
  encoding yield: 0.01
[5]
  encoding yield: 0.01
[6]
  encoding yield: 0.01
[7]
  encoding yield: 0.02
[8]
  encoding yield: 0.01
[9]
  encoding yield: 0.13
[10]
  encoding yield: 0.06
[11]
  encoding yield: 0.03
[12]
  encoding yield: 0.01
[13]
  encoding yield: 0.01
[14]
  encoding yield: 0.02
[15]
  encoding yield: 0.01
[16]
  encoding yield: 0.03
[17]
  encoding yield: 0.02
[18]
  encoding yield: 0.03
[19]
  encoding yield: 0.01
[20]
  encoding yield: 0.01
[21]
  encoding yield: 0.01
[22]
  encoding yield: 0.09
[23]
  encoding yield: 0.01
[24]
  encoding yield: 0.01
[25]
  encoding yield: 0.09
[26]
  encoding yield: 0.04
[27]
  encoding yield: 0.01
[28]
  encoding yield: 0.01
[29]
  encoding yield: 0.02
[30]
  encoding yield: 0.02
[31]
  encoding yield: 0.02
[32]
  encoding yield: 0.01
[33]
  encoding yield: 0.01
[34]
  encoding yield: 0.01
[35]
  encoding yield: 0.01
[36]
  encoding yield: 0
[37]
  encoding yield: 0.02
[38]
  encoding yield: 0
[39]
  encoding yield: 0.01
[40]
  encoding yield: 0.01
[41]
  encoding yield: 0.01
[42]
  encoding yield: 0.01
[43]
  encoding yield: 0.01
[44]
  encoding yield: 0.01
[45]
  encoding yield: 0.01
[46]
  encoding yield: 0.03
[47]
  encoding yield: 0.07
[48]
  encoding yield: 0.08
[49]
  encoding yield: 0.04
[50]
  encoding yield: 0.02
[51]
  encoding yield: 0.01

B3: engineered M44-L binder (SEQ ID NO: 31) (designed binder, not shown: small tags and cut ends; large carriers)
chain: QDSTQNLIPAPPLISVPLQPGFWTERFQGRWFLVGFAGNAVQKERQSRLTMQSLILELQEDNSYNITAINVRGQGCRYIISTLVPSSRPGQFTLGNIHSYPQIQSLDVQVADTDYDQFAMVFLQGTSENKQYFEVALAGRTKGLSDELKERFVSFAKSLGLKDNNIVFSVPTDQCIDN
[1]
  encoding yield: 0.11
[2]
  encoding yield: 0.05
[3]
  encoding yield: 0.03
[4]
  encoding yield: 0.03
[5]
  encoding yield: 0.03
[6]
  encoding yield: 0.05
[7]
  encoding yield: 0.02
[8]
  encoding yield: 0.03
[9]
  encoding yield: 0.14
[10]
  encoding yield: 0.15
[11]
  encoding yield: 0.03
[12]
  encoding yield: 0.05
[13]
  encoding yield: 0.01
[14]
  encoding yield: 0.03
[15]
  encoding yield: 0.04
[16]
  encoding yield: 0.06
[17]
  encoding yield: 0.05
[18]
  encoding yield: 0.07
[19]
  encoding yield: 0.03
[20]
  encoding yield: 0.02
[21]
  encoding yield: 0.02
[22]
  encoding yield: 0.08
[23]
  encoding yield: 0.03
[24]
  encoding yield: 0.06
[25]
  encoding yield: 0.07
[26]
  encoding yield: 0.02
[27]
  encoding yield: 0.02
[28]
  encoding yield: 0.02
[29]
  encoding yield: 0.04
[30]
  encoding yield: 0.03
[31]
  encoding yield: 0.04
[32]
  encoding yield: 0.01
[33]
  encoding yield: 0.02
[34]
  encoding yield: 0.04
[35]
  encoding yield: 0.04
[36]
  encoding yield: 0.03
[37]
  encoding yield: 0.12
[38]
  encoding yield: 0.01
[39]
  encoding yield: 0.02
[40]
  encoding yield: 0.01
[41]
  encoding yield: 0.04
[42]
  encoding yield: 0.03
[43]
  encoding yield: 0.05
[44]
  encoding yield: 0.05
[45]
  encoding yield: 0.04
[46]
  encoding yield: 0.09
[47]
  encoding yield: 0.16
[48]
  encoding yield: 0.42
[49]
  encoding yield: 0.14
[50]
  encoding yield: 0.03
[51]
  encoding yield: 0.05
